Test results reported in patent US20240368269A1.

Biological target: DLL3 (target in the Fab-Zap internalization assay) (UniProt Q9NYJ7)
Assay: cell-based or functional assay

Sequence of DLL3 (target in the Fab-Zap internalization assay) (Q9NYJ7 27-618 limits assumed): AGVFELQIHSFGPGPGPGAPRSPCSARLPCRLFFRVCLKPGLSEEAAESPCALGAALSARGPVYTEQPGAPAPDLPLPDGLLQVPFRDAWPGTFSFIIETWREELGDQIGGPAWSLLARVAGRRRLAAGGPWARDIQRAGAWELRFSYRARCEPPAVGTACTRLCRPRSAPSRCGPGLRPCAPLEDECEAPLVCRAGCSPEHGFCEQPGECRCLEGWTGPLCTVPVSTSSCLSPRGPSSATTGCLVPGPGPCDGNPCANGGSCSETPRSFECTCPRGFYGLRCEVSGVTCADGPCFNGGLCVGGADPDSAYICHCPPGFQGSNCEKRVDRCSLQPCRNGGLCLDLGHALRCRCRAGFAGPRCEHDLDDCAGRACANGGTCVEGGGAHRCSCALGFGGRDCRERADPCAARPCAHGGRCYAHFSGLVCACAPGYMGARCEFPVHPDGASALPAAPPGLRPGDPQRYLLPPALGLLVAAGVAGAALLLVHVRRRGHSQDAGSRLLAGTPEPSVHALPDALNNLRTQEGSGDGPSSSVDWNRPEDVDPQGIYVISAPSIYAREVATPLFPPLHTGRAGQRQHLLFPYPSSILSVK

“Rovalpituzumab Tesirine (SC16LD6.5) (antibody)” was tested, and the Percent Max Killing (Fab-Zap internalization assay, 10 ug/ml) was 96%.
